Laboratory results taken from paper PMC6987200 (Nature Communications, 2020).
“And” between values parts separate entries of the source, which are not always exact repeats. Identical values can stand only once.

T1: aquaporin channel (AqpZ) fused to GFP, P60844
T1 chain: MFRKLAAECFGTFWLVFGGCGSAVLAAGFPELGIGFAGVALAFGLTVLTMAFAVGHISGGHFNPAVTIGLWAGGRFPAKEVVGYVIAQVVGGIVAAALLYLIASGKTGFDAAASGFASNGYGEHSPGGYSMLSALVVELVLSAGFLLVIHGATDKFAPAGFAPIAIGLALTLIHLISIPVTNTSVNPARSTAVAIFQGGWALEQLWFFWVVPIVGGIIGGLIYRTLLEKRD


Experiments:
[1] = molecular target: T1, aquaporin channel (AqpZ) fused to GFP, …; experiment: native MS; AqpZ-GFP after extraction with OGD batches and IMAC; MS buffer 200 mM NH4OAc, pH 6.8, with detergent; modified Q Exactive, HCD 200 V; details: remark: other sources report otherwise
[2] = molecular target: the molecule itself; experiment: native MS; OmpF after detergent exchange from n-octyl-β-D-glucopyranoside to OGDs 1-3 on Superdex 200; MS buffer 200 mM NH4OAc, pH 6.8; HCD 200 V

Row | Binder | stoichiometry N [1] | stoichiometry N [2]
1 | aquaporin channel (AqpZ) fused to GFP, P60844 1-231 (natural protein) MFRKLAAECFGTFWLVFGGCGSAVLAAGFPELGIGFAGVALAFGLTVLTMAFAVGHISGGHFNPAVTIGLWAGGRFPAKEVVGYVIAQVVGGIVAAALLYLIASGKTGFDAAASGFASNGYGEHSPGGYSMLSALVVELVLSAGFLLVIHGATDKFAPAGFAPIAIGLALTLIHLISIPVTNTSVNPARSTAVAIFQGGWALEQLWFFWVVPIVGGIIGGLIYRTLLEKRD | 4 and 2 | –
2 | OmpF (natural protein, UniProt P02931 23-362, looked up, OmpF, a bacterial outer membrane protein; also called trimeric OmpF; source: detergent exchanged on Superdex 200) AEIYNKDGNKVDLYGKAVGLHYFSKGNGENSYGGNGDMTYARLGFKGETQINSDLTGYGQWEYNFQGNNSEGADAQTGNKTRLAFAGLKYADVGSFDYGRNYGVVYDALGYTDMLPEFGGDTAYSDDFFVGRVGGVATYRNSNFFGLVDGLNFAVQYLGKNERDTARRSNGDGVGGSISYEYEGFGIVGAYGAADRTNLQEAQPLGNGKKAEQWATGLKYDANNIYLAANYGETRNATPITNKFTNTSGFANKTQDVLLVAQYQFDFGLRPSIAYTKSKAKDVEGIGDVDLVNYFEVGATYYFNKNMSTYVDYIINQIDSDNKLGVGSDDTVAVGIVYQF | – | 3
